Data on six proteins can be found in publication PMC8993905, “Functional control of a 0.5 MDa TET aminopeptidase by a flexible loop revealed by MAS NMR” (Nature Communications, 2022).

What is called Km is the substrate concentration at which the rate is half of its maximum. For orientation: kcat means the number of substrate molecules converted per active site and unit of time at saturation.

Substrate in the series: CC(C)C[C@H](N)C(=O)Nc1ccc([N+](=O)[O-])cc1
The series can be described thus: purified protein. The conditions noted are these: pH 7.5 (20 mM Tris, 100 mM NaCl), 50 °C, 2.8% DMSO, 0.1-6.4 mM substrate. It counts as biochemical, Pyrococcus horikoshii.

Where [1] appears, read: mutant printed as Δ(122,126), loop shortened by one residue on each side of H123.
Setting [2] is: Δloop mutant, loop printed as shortened to a two-residue β-turn and as lacking residues 120-138.

B1: TET2 (Pyrococcus horikoshii OT3; DEL122-122/DEL126-126) (protein)
chain: MEVRNMVDYELLKKVVEAPGVSGYEFLGIRDVVIEEIKDYVDEVKVDKLGNVIAHKKGEGPKVMIAAHMDQIGLMVTHIEKNGFLRVAPIGGVDPKTLIAQRFKVWIDKGKFIYGVGASVPHIQPEDRKKAPDWDQIFIDIGAESKEEAEDMGVKIGTVITWDGRLERLGKHRFVSIAFDDRIAVYTILEVAKQLKDAKADVYFVATVQEEVGLRGARTSAFGIEPDYGFAIDVTIAADIPGTPEHKQVTHLGKGTAIKIMDRSVICHPTIVRWLEELAKKHEIPYQLEILLGGGTDAGAIHLTKAGVPTGALSVPARYIHSNTEVVDERDVDATVELMTKALENIHELKI
notes: full length, 353 residues per subunit, pET41c in E. coli BL21(DE3), no tag mentioned (heat step, Resource Q, Superdex 200), 39 kDa subunit, 468 kDa homododecamer, two Zn per active site
As to B1, under setting [1], the Km came out at 28.5 ± 2.3 mM and the kcat was determined as 31.5 ± 8.1 s⁻¹.

B2: TET2 (Pyrococcus horikoshii OT3) (protein)
chain: MEVRNMVDYELLKKVVEAPGVSGYEFLGIRDVVIEEIKDYVDEVKVDKLGNVIAHKKGEGPKVMIAAHMDQIGLMVTHIEKNGFLRVAPIGGVDPKTLIAQRFKVWIDKGKFIYGVGASVPPHIQKPEDRKKAPDWDQIFIDIGAESKEEAEDMGVKIGTVITWDGRLERLGKHRFVSIAFDDRIAVYTILEVAKQLKDAKADVYFVATVQEEVGLRGARTSAFGIEPDYGFAIDVTIAADIPGTPEHKQVTHLGKGTAIKIMDRSVICHPTIVRWLEELAKKHEIPYQLEILLGGGTDAGAIHLTKAGVPTGALSVPARYIHSNTEVVDERDVDATVELMTKALENIHELKI
notes: as for B1
B2: the Km worked out at 3.2 ± 0.1 mM and the kcat came to 14.1 ± 1.7 s⁻¹.

B3: TET2 (Pyrococcus horikoshii OT3; H123Y) (protein)
chain: MEVRNMVDYELLKKVVEAPGVSGYEFLGIRDVVIEEIKDYVDEVKVDKLGNVIAHKKGEGPKVMIAAHMDQIGLMVTHIEKNGFLRVAPIGGVDPKTLIAQRFKVWIDKGKFIYGVGASVPPYIQKPEDRKKAPDWDQIFIDIGAESKEEAEDMGVKIGTVITWDGRLERLGKHRFVSIAFDDRIAVYTILEVAKQLKDAKADVYFVATVQEEVGLRGARTSAFGIEPDYGFAIDVTIAADIPGTPEHKQVTHLGKGTAIKIMDRSVICHPTIVRWLEELAKKHEIPYQLEILLGGGTDAGAIHLTKAGVPTGALSVPARYIHSNTEVVDERDVDATVELMTKALENIHELKI
notes: as for B1
Regarding B3, the Km was found to be 13.8 ± 0.6 mM and the kcat was found to be 15.7 ± 2.7 s⁻¹.

B4: TET2 (Pyrococcus horikoshii OT3; H123K) (protein)
chain: MEVRNMVDYELLKKVVEAPGVSGYEFLGIRDVVIEEIKDYVDEVKVDKLGNVIAHKKGEGPKVMIAAHMDQIGLMVTHIEKNGFLRVAPIGGVDPKTLIAQRFKVWIDKGKFIYGVGASVPPKIQKPEDRKKAPDWDQIFIDIGAESKEEAEDMGVKIGTVITWDGRLERLGKHRFVSIAFDDRIAVYTILEVAKQLKDAKADVYFVATVQEEVGLRGARTSAFGIEPDYGFAIDVTIAADIPGTPEHKQVTHLGKGTAIKIMDRSVICHPTIVRWLEELAKKHEIPYQLEILLGGGTDAGAIHLTKAGVPTGALSVPARYIHSNTEVVDERDVDATVELMTKALENIHELKI
notes: as for B1
For the protein B4, the Km is 17.0 ± 1.3 mM and the turnover number (kcat) was determined as 16.9 ± 3.6 s⁻¹.

B5: TET2 (Pyrococcus horikoshii OT3; H123F) (protein)
chain: MEVRNMVDYELLKKVVEAPGVSGYEFLGIRDVVIEEIKDYVDEVKVDKLGNVIAHKKGEGPKVMIAAHMDQIGLMVTHIEKNGFLRVAPIGGVDPKTLIAQRFKVWIDKGKFIYGVGASVPPFIQKPEDRKKAPDWDQIFIDIGAESKEEAEDMGVKIGTVITWDGRLERLGKHRFVSIAFDDRIAVYTILEVAKQLKDAKADVYFVATVQEEVGLRGARTSAFGIEPDYGFAIDVTIAADIPGTPEHKQVTHLGKGTAIKIMDRSVICHPTIVRWLEELAKKHEIPYQLEILLGGGTDAGAIHLTKAGVPTGALSVPARYIHSNTEVVDERDVDATVELMTKALENIHELKI
notes: as for B1
Consider B5, for which the Km was determined as 14.4 ± 0.6 mM and the kcat stood at 26.6 ± 4.1 s⁻¹.

B6: TET2 (Pyrococcus horikoshii OT3; DEL120-138) (protein)
chain: MEVRNMVDYELLKKVVEAPGVSGYEFLGIRDVVIEEIKDYVDEVKVDKLGNVIAHKKGEGPKVMIAAHMDQIGLMVTHIEKNGFLRVAPIGGVDPKTLIAQRFKVWIDKGKFIYGVGASIFIDIGAESKEEAEDMGVKIGTVITWDGRLERLGKHRFVSIAFDDRIAVYTILEVAKQLKDAKADVYFVATVQEEVGLRGARTSAFGIEPDYGFAIDVTIAADIPGTPEHKQVTHLGKGTAIKIMDRSVICHPTIVRWLEELAKKHEIPYQLEILLGGGTDAGAIHLTKAGVPTGALSVPARYIHSNTEVVDERDVDATVELMTKALENIHELKI
notes: as for B1
B6: under setting [2], the Km turned out to be 1.3 ± 0.1 mM and the turnover number (kcat) was 1.7 ± 1.0 s⁻¹.
